For one molecule, AP-1 luciferase EC50, WSU-DLCL2/hPD-L1 + Jurkat/AP1-Luc/hPD1 and AP-1 luciferase MAX (RLU), WSU-DLCL2/hPD-L1 + Jurkat/AP1-Luc/hPD1 results are on record in patent US20250043002A1.

This assay addresses human PD1 expressed on Jurkat/AP1-Luc/hPD1 cells (human) (UniProt Q15116). The assay can be described thus: cell-based or functional assay.

human PD1 expressed on Jurkat/AP1-Luc/hPD1 cells (human), sequence (Q15116 25-288): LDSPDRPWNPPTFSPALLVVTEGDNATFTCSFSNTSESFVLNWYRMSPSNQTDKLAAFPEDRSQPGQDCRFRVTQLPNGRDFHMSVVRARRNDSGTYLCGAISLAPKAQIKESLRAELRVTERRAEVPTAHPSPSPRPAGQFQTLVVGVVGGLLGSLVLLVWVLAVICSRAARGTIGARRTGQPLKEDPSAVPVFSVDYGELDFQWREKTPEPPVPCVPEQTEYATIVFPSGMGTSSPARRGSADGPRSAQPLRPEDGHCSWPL

B1: REGN2810 (cemiplimab, LIBTAYO), anti-PD1 antibody (antibody, INN chains, looked up, V domains shown)
VH: EVQLLESGGVLVQPGGSLRLSCAASGFTFSNFGMTWVRQAPGKGLEWVSGISGGGRDTYFADSVKGRFTISRDNSKNTLYLQMNSLKGEDTAVYYCVKWGNIYFDYWGQGTLVTVSS
VL: DIQMTQSPSSLSASVGDSITITCRASLSINTFLNWYQQKPGKAPNLLIYAASSLHGGVPSRFSGSGSGTDFTLTIRTLQPEDFATYYCQQSSNTPFTFGPGTVVDFR
Consider B1, for which the AP-1 luciferase EC50, WSU-DLCL2/hPD-L1 + Jurkat/AP1-Luc/hPD1 came out at 0.29 nM and the AP-1 luciferase MAX (RLU), WSU-DLCL2/hPD-L1 + Jurkat/AP1-Luc/hPD1 was found to be 1.1e+06 RLU.
